From patent US10562935B2, “Stapled peptides and uses thereof” (London Health Sciences Centre Research Inc., priority 2015, dated 2020)
Bridges are numbered along the chain shown (N, C = ends).

What was measured:
[1] = tested on: RHAMM-overexpressing (LR21) cells; assay: Cell migration assay (Boyden chamber, Chemicon ECM510); assay type: cell-based; details: for Migration (% inhib.): % inhibition relative to positive control
Summary of the method: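 Serum-starved LR21 cells (7.5×10^4) placed in the upper Boyden chamber with or without 10 ng/mL peptide, with 30% FBS in DMEM as lower-chamber chemoattractant. Cells crossing the membrane after 20 h quantified by CyQUANT GR fluorescence (480/520 nm); mean of n=3, compared with 30% serum control.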

[2] = Circular dichroism (CD) spectroscopy of linear and stapled peptides in water or 40% TFE/water (Example 3); assay type: physicochemical
Summary of the method: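 Spectra 180–260 nm at 20 °C, 0.5 mM N-acetylated, C-amidated peptides in 0.1M phosphate buffer (water) or 40% TFE/water, 1 mm path, five scans averaged, buffer baseline subtracted. Mean residue ellipticity reported at 222 and 208 nm with the 222/208 ratio as helicity index.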

[3] = tested on: RHAMM-overexpressing (LR21) cells; assay: Cell invasion assay (Boyden chamber with MATRIGEL, Chemicon ECM555); assay type: cell-based; details: for inhibition of cellular invasion (in words): 10 ng/mL peptide, 20 hours, compared to 30% serum control; for Invasion (% inhib.): % inhibition relative to positive control, 10 ng/mL of peptide
Summary of the method: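 Serum-starved RHAMM-overexpressing LR21 cells (7.5×10^4) placed in upper Boyden chamber over MATRIGEL-coated filter, with or without 10 ng/mL peptide; 30% FBS/DMEM chemoattractant below. Invaded cells quantified after 20 h by CyQUANT GR fluorescence (480/520 nm); mean ± SD, n=3, versus 30% serum control.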

[4] = [θ]222/[θ]208 ratio in water, summary tables 15, 17, 19
[5] = as repeated in tables 16, 18, 20

Row | Substance | inhibition of cell migration (in words) ([1]; 10 ng/mL peptide, 20 hours, compared to 30% serum control) | Migration (% inhib.) [1] | [0]208 mean residue ellipticity at λ=208 nm ([2]; 40% TFE/water) | [0]222/[0]208 ratio of ellipticities ([2]; 40% TFE/water) | [0]222 mean residue ellipticity at λ=222 nm ([2]; 40% TFE/water) | [θ]222/[θ]208 ratio of ellipticities [2, 4] | [θ]222/[θ]208 ratio of ellipticities [2, 5] | [0]222/[0]208 ratio of ellipticities ([2]; in water) | alpha-helical character by CD (in words) ([2]; in water) | [0]208 mean residue ellipticity at λ=208 nm ([2]; water) | [0]222/[0]208 ratio of ellipticities ([2]; water) | [0]222 mean residue ellipticity at λ=222 nm ([2]; water) | inhibition of cellular invasion (in words) [3] | Invasion (% inhib.) [3]
1 | Ac-(cyclo-10-14, cyclo-15-19)-KIKHVVKLK[EENSK][EKSEK]SKLRSQLVKRK-NH2 (Ac-KIKHVVKLKEENSKEKSEKSKLRSQLVKRK-NH2; lactam 10-14, 15-19; SMILES CC[C@H](C)[C@H](NC(=O)[C@H](CCCCN)NC(C)=O)C(=O)N[C@@H](CCCCN)C(=O)N[C@@H](Cc1c[nH]cn1)C(=O)N[C@H](C(=O)N[C@H](C(=O)N[C@@H](CCCCN)C(=O)N[C@@H](CC(C)C)C(=O)N[C@@H](CCCCN)C(=O)N[C@H]1CCC(=O)NCCCC[C@@H](C(=O)N[C@H]2CCC(=O)NCCCC[C@@H](C(=O)N[C@@H](CO)C(=O)N[C@@H](CCCCN)C(=O)N[C@@H](CC(C)C)C(=O)N[C@@H](CCCNC(=N)N)C(=O)N[C@@H](CO)C(=O)N[C@@H](CCC(N)=O)C(=O)N[C@@H](CC(C)C)C(=O)N[C@H](C(=O)N[C@@H](CCCCN)C(=O)N[C@@H](CCCNC(=N)N)C(=O)N[C@@H](CCCCN)C(N)=O)C(C)C)NC(=O)[C@H](CCC(=O)O)NC(=O)[C@H](CO)NC(=O)[C@H](CCCCN)NC2=O)NC(=O)[C@H](CO)NC(=O)[C@H](CC(N)=O)NC(=O)[C@H](CCC(=O)O)NC1=O)C(C)C)C(C)C) [Compound 266] | significantly inhibit cell migration | 61 % inhib. | -2.11E04 deg cm^2 dmol^−1 | 0.84 | -1.77E04 deg cm^2 dmol^−1 | 0.63 | 0.63 | 0.63 | best improvement in helicity | -9.36E+03 deg cm^2 dmol^−1 | 0.63 | -5.89E+03 deg cm^2 dmol^−1 | significantly inhibited cellular invasion | 50 % inhib.
2 | Ac-(cyclo-10-14, cyclo-15-19)-KIKHVVKLK[EENSK][KKSEE]SKLRSQLVKRK-NH2 (Ac-KIKHVVKLKEENSKKKSEESKLRSQLVKRK-NH2; lactam 10-14, 15-19; SMILES CC[C@H](C)[C@H](NC(=O)[C@H](CCCCN)NC(C)=O)C(=O)N[C@@H](CCCCN)C(=O)N[C@@H](Cc1c[nH]cn1)C(=O)N[C@H](C(=O)N[C@H](C(=O)N[C@@H](CCCCN)C(=O)N[C@@H](CC(C)C)C(=O)N[C@@H](CCCCN)C(=O)N[C@H]1CCC(=O)NCCCC[C@@H](C(=O)N[C@H]2CCCCNC(=O)CC[C@@H](C(=O)N[C@@H](CO)C(=O)N[C@@H](CCCCN)C(=O)N[C@@H](CC(C)C)C(=O)N[C@@H](CCCNC(=N)N)C(=O)N[C@@H](CO)C(=O)N[C@@H](CCC(N)=O)C(=O)N[C@@H](CC(C)C)C(=O)N[C@H](C(=O)N[C@@H](CCCCN)C(=O)N[C@@H](CCCNC(=N)N)C(=O)N[C@@H](CCCCN)C(N)=O)C(C)C)NC(=O)[C@H](CCC(=O)O)NC(=O)[C@H](CO)NC(=O)[C@H](CCCCN)NC2=O)NC(=O)[C@H](CO)NC(=O)[C@H](CC(N)=O)NC(=O)[C@H](CCC(=O)O)NC1=O)C(C)C)C(C)C) [Compound 268] |  | 0 % inhib. | -.304E04 deg cm^2 dmol^−1 | 0.83 | -2.54E04 deg cm^2 dmol^−1 | 0.40 | 0.40 |  |  | -6.74E+03 deg cm^2 dmol^−1 | 0.40 | -2.71E+03 deg cm^2 dmol^−1 | significantly inhibited cellular invasion | 50 % inhib.
